Test results reported in patent US20090042235A1, “PHOTOREGULATED PEPTIDE, AND METHOD FOR REGULATION OF PEPTIDE-PROTEIN COMPLEX FORMATION USING THE PHOTOREGULATED PEPTIDE” (priority 2005, published 2009).
Bridge positions count the residues as written; N and C are the ends. Ends that are not written are not given here. DBMNB = photocleavable intramolecular cysteine cross-linker

Target: T1, PI3-Kα SH3 domain (Homo sapiens, UniProt P27986)
T1 construct: As a functional protein, an SH3 domain protein of PI3-Kα was used
Test: Circular dichroism (CD) differential spectra of peptide / PI3-Kα SH3 domain mixtures: photoregulation of peptide-protein complex formation
Format: binding
Description: As a functional protein, an SH3 domain protein of PI3-Kα was used. The PI3-Kα SH3 domain interacts with RLP1. The peptide having an intramolecular cross-linkage obtained in the manner as described above and the PI3-Kα SH3 domain were mixed in 10 mM phosphate buffer solution (pH 7.0), to obtain Mixture solution (I) in which the concentration of the peptide having an intramolecular cross-linkage was 100 microM and that of the PI3-Kα SH3 domain was 20 microM.
Then, Mixture solution (I) was irradiated with UV light. Irradiation was performed by using Minilite II manufactured by Continuum as a UV irradiator, with pulsed light at wavelength of 355 nm (third harmonic of Nd-YAG laser, pulse width 5 ns, 10 Hz, pulse intensity 4 mJ/cm^2) at 4° C. for 30 minutes. By UV irradiation, either one of the bonds between cysteine and DBMNB in the peptide having an intramolecular cross-linkage was cleaved. This was named Mixture solution (II).
Used sample solutions are shown below.
(i) Mixture solution (I) (ii) Mixture solution (II) (iii) Uncross-linked peptide RLP1 100 microM (10 mM phosphate buffer solution, pH 7.0) (iv) Peptide having an intramolecular cross-linkage (not irradiated with UV light) 100 microM (10 mM phosphate buffer solution, pH 7.0) (v) PI3-Kα SH3 domain 20 microM (10 mM phosphate buffer solution, pH 7.0) (vi) Mixture solution prepared by mixing an uncross-linked peptide RLP1 and a PI3-Kα SH3 domain in 10 mM phosphate buffer solution (pH 7.0), so that the concentration of the uncross-linked peptide is 100 microM and that of the PI3-Kα SH3 domain is 20 microM.
The horizontal axis of the graph represents wavelength of circularly polarized light (Wavelength/nm), and the vertical axis represents intensity of circular dichroism (Δθ/mdeg). In the graph of FIG. 7, “dark” represents different-al spectrum obtained by subtracting CD spectrum (iv) of the peptide having an intramolecular cross-linkage and CD spectrum (v) of the PI3-Kα SH3 domain from CD spectrum (i) of Mixture solution (I). Further, “light” represents differential spectrum obtained by subtracting CD spectrum (i) of Mixture solution (I) from CD spectrum (ii) of Mixture solution (II).

T1 sequence (P27986 3-79 limits assumed): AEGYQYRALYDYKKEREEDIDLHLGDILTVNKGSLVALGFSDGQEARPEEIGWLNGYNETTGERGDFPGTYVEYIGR

| interaction with specific recognizing site of the PI3-Kα SH3 domain (differential CD spectrum "dark") (Mixture solution (I), not irradiated, peptide 100 microM, SH3 domain 20 microM, 10 mM phosphate buffer pH 7.0, room temperature) | differential CD spectrum "light" (Mixture solution (II) minus Mixture solution (I)) (after UV irradiation 355 nm pulsed light, 4° C., 30 minutes, peptide 100 microM, SH3 domain 20 microM, pH 7.0) | complex formation with PI3-Kα SH3 domain (after UV irradiation (cyclic structure dissociated)) | differential CD spectrum of mixture with PI3-Kα SH3 domain minus peptide and SH3 domain spectra (peak ascribable to formation of complex) (uncross-linked peptide 100 microM, SH3 domain 20 microM, 10 mM phosphate buffer pH 7.0, no irradiation) | Substance |
| --- | --- | --- | --- | --- |
| no interaction | positive peak was observed around 220 nm | forms a complex | – | peptide having an intramolecular cross-linkage: RLP1-2C (Cys Arg Lys Leu Pro Pro Arg Ser Lys Cys) intramolecularly cross-linked between its cysteines via photocleavable DBMNB, cyclic (CRKLPPRSKC; linker 1-10 via DBMNB) |
| – | – | – | positive peak was observed around 220 nm | RKLPPRSK [RLP1, reference compound] |
